Molecular target: GST-USP7 (human, UniProt Q93009-1 1-1102)
Experiment: pull-down

GST-USP7, sequence (Q93009 whole entry): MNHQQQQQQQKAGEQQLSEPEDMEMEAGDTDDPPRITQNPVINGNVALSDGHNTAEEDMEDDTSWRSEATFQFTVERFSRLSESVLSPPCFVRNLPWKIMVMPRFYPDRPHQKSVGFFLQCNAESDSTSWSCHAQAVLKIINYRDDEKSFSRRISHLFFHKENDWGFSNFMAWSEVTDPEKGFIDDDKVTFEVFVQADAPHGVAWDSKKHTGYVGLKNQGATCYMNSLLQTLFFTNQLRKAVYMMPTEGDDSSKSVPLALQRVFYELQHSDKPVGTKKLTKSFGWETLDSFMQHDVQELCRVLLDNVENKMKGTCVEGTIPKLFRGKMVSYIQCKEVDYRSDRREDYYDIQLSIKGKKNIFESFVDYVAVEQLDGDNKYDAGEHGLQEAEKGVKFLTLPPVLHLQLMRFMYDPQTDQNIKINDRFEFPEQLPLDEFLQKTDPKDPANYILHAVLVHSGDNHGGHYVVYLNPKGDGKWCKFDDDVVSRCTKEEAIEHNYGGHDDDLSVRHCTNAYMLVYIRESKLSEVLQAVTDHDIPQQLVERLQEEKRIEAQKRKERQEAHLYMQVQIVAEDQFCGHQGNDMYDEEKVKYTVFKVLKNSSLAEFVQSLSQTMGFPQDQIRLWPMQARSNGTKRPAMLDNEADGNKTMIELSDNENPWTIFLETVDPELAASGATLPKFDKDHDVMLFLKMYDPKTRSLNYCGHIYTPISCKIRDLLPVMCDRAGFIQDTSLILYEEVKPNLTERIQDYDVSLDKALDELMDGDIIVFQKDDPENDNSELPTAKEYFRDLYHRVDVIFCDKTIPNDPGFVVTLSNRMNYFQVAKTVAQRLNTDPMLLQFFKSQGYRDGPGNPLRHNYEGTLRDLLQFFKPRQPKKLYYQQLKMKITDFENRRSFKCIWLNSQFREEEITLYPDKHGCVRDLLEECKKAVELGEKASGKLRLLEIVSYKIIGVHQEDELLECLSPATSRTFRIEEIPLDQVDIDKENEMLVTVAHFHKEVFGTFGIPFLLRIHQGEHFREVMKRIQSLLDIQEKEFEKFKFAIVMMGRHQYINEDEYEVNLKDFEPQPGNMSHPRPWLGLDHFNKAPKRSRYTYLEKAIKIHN

B1: FlagHis12-tagged mouse Bmi1 (natural protein)
chain: MHRTTRIKITELNPHLMCVLCGGYFIDATTIIECLHSFCKTCIVRYLETSKYCPICDVQVHKTRPLLNIRSDKTLQDIVYKLVPGLFKNEMKRRRDFYAAHPSADAANGSNEDRGEVADEEKRIITDDEIISLSIEFFDQSRLDRKVNKEKPKEEVNDKRYLRCPAAMTVMHLRKFLRSKMDIPNTFQIDVMYEEEPLKDYYTLMDIAYIYTWRRNGPLPLKYRVRPTCKRMKMSHQRDGLTNAGELESDSGSDKANSPAGGVPSTSSCLPSPSTPVQSPHPQFPHISSTMNGTSNSPSANHQSSFASRPRKSSLNGSSATSSG
binding result: binds

B2: CBX8-Flag purified from bacteria (natural protein)
chain: MELSAVGERVFAAEALLKRRIRKGRMEYLVKWKGWSQKYSTWEPEENILDARLLAAFEEREREMELYGPKKRGPKPKTFLLKAQAKAKAKTYEFRSDSARGIRIPYPGRSPQDLASTSRAREGLRNMGLSPPASSTSTSSTCRAEAPRDRDRDRDRDRERDRERERERERERERERERERGTSRVDDKPSSPGDSSKKRGPKPRKELPDPSQRPLGEPSAGLGEYLKGRKLDDTPSGAGKFPAGHSVIQLARRQDSDLVQCGVTSPSSAEATGKLAVDTFPARVIKHRAAFLEAKGQGALDPNGTRVRHGSGPPSSGGGLYRDMGAQGGRPSLIARIPVARILGDPEEESWSPSLTNLEKVVVTDVTSNFLTVTIKESNTDQGFFKEKR
binding result: binds

B3: FlagHis12-tagged mouse Ring1b (natural protein)
chain: MSQAVQTNGTQPLSKTWELSLYELQRTPQEAITDGLEIVVSPRSLHSELMCPICLDMLKNTMTTKECLHRFCADCIITALRSGNKECPTCRKKLVSKRSLRPDPNFDALISKIYPSRDEYEAHQERVLARINKHNNQQALSHSIEEGLKIQAMNRLQRGKKQQIENGSGAEDNGDSSHCSNASTHSNQEAGPSNKRTKTSDDSGLELDNNNAAVAIDPVMDGASEIELVFRPHPTLMEKDDSAQTRYIKTSGNATVDHLSKYLAVRLALEELRSKGESNQMNLDTASEKQYTIYIATASGQFTVLNGSFSLELVSEKYWKVNKPMELYYAPTKEHK
binding result: binds

B4: FlagHis12-tagged mouse Mel18 (natural protein)
chain: MHRTTRIKITELNPHLMCALCGGYFIDATTIVECLHSFCKTCIVRYLETNKYCPMCDVQVHKTRPLLSIRSDKTLQDIVYKLVPGLFKDEMKRRRDFYAAYPLTEVPNGSNEDRGEVLEQEKGALGDDEIVSLSIEFYEGVRDREEKKNLTENGDGDKEKTGVRFLRCPAAMTVMHLAKFLRNKMDVPSKYKVEILYEDEPLKEYYTLMDIAYIYPWRRNGPLPLKYRVQPACKRLTLPTVPTPSEGTNTSGASECESVSDKAPSPATLPATSSSLPSPATPSHGSPSSHGPPATHPTSPTPPSTAAGTTTATNGGTSNCLQTPSSTSRGRKMTVNGAPCPP
binding result: binds

From paper PMC2928679 (The EMBO Journal, 2010)
